In the RNAGym collection of RNA variant scans (doi:10.7554/elife.80360):

B1: Hammerhead Ribozyme (parent)
chain: ACCGGAUGUGCUUUCCGGUCUGAUGAGUCCGUGAGGACGAAACAG

Variants of: B1
Assay: self-cleavage, relative activity (ratio to wild type); higher = more cleavage; co-transcriptional

Variant | self-cleavage
G27A G39A | 0.247
C2G G25A | 0.325
U9A C16G | 0.742
C11A A44U | 0.666
A34U G45C | 0.533
G8A G36A | 0.424
A23G A44U | 0.339
U7A U28C | 1.26
C11U C43A | 0.36
U12C C20U | 0.395
C20G | 0.341
G5U U9C | 0.881
G8A U19G | 0.448
G8C G17A | 0.663
C29A G45C | 0.388
G22A G35U | 0.328
G25U G45U | 0.323
A1G U19C | 2.02
G22C G39C | 0.375
G31C A37C | 1.05
A40C A41C | 0.385
G22A C43G | 0.288
G22C C30A | 0.346
U21C C29U | 0.84

Variant | self-cleavage
G8A G27A | 0.874
C20G A26C | 0.404
C2U A42G | 0.467
C3A G18A | 0.344
G10C A40U | 0.28
A26G C43A | 0.325
U9C G36U | 0.683
C3G C38U | 0.37
U24A G27C | 0.685
G4U | 0.515
C38U G39C | 0.584
G17C G31U | 0.713
U21G C29A | 0.3
G8C C11U | 1.02
G35U G36C | 0.476
G10C G33U | 0.934
G4C A42G | 0.359
C15G A23U | 0.303
G31U G39A | 0.32
A26U U28C | 0.646
A34C C43G | 0.327
G17U G22A | 0.368
A1G C20A | 0.54
G5C A41U | 0.326

Variant | self-cleavage
G36C C38U | 0.335
C15G A26C | 0.321
U32C A37G | 0.987
G25C G36C | 0.281
G27U A44U | 0.349
G5A G17U | 0.452
G25U C38A | 0.328
G18C U28C | 0.263
A1U G27C | 0.317
C3U G10U | 1.22
A37C G45U | 0.636
G4C C30A | 0.594
G18C G31C | 0.548
U32G C38G | 0.497
C3A G22U | 0.291
C3U U13C | 1.33
C2G G35A | 0.271
U24A G33U | 0.78
U13C G27U | 0.673
U9G G35C | 0.562
G8C G27C | 0.63
U9G G27A | 0.449
U24G A34C | 0.823
U21C G27U | 0.361

Variant | self-cleavage
U21C G27C | 0.557
U14C G36U | 0.455
C11G G33C | 1
C11A A42C | 0.284
G8U C43U | 0.677
C2G U21G | 0.331
U9C G39U | 0.264
G25A G27U | 0.314
G5U U12G | 0.806
U7G C43U | 0.389
G22U A26G | 0.346
U19C U21G | 0.221
G8U G17C | 0.509
G8U G17U | 0.964
U7A G18C | 0.365
U7C G25C | 0.319
U13A C38G | 0.728
A23G G36C | 0.291
G18C U19G | 0.224
U12A C38G | 0.719
C3G C29A | 0.324
C15G C16G | 0.384
G18U U19G | 0.291
C15A | 0.93

Variant | self-cleavage
C15U U21A | 0.595
A6C G33U | 0.579
C30A A42G | 0.246
C2A G17C | 0.359
U7A A40C | 0.261
C11A G17A | 0.717
C2A A23U | 0.33
C2A A23C | 0.297
G22A G36U | 0.344
G27A C38U | 0.965
A1G C2G | 0.735
A6U C16A | 0.471
A1G U28G | 1.33
G18C G39C | 0.289
C20G G22C | 0.43
C20G G22U | 0.343
A23G A37U | 0.28
U12A A37C | 1.2
C15G C43G | 0.327
A1G G39A | 0.384
A1U C11A | 1.01
G8U U12G | 0.993
U24C G31U | 0.982
C29G G36C | 0.799

Variant | self-cleavage
G5A G45C | 0.554
C29G A37G | 0.414
G5A C11G | 1.27
U28C A34U | 0.723
G33U C38G | 0.67
C11A U13C | 1.01
G22C A37G | 0.416
U24C A26G | 0.401
U21G G33C | 0.867
U14C G45U | 0.485
G4C A44U | 0.34
G4C A44G | 0.805
C20A C30A | 0.286
G22A G39C | 0.385
G39U A41U | 0.326
A42C C43G | 0.271
A6U G25C | 0.259
G10C G25C | 0.397
G35U A44U | 0.338
U14A G36C | 0.319
C16A G35C | 0.573
A1G C16G | 0.778
G8U C16U | 1.27
U19C C20U | 0.321

Variant | self-cleavage
U7G A34G | 1.67
C3A G25U | 0.282
A34G C43A | 0.32
G5A U32A | 1.32
A34G A37U | 0.47
U32C A40C | 0.626
A1U G35A | 0.635
A6C G39C | 0.368
C16A G39U | 0.336
A6C A40G | 0.38
U14A U24G | 1.12
G4C G5C | 0.327
U19G U32C | 0.449
G8C G39C | 0.407
G27U C43A | 0.374
G18U G39U | 0.392
G27A G33A | 1.1
U19G C20A | 0.316
U28G A44C | 0.371
A1C A26G | 0.302
A1C A26U | 0.352
G4C C29G | 0.347
G27C A37U | 0.479
